Test [1] addresses Cynomolgus monkey DLL3 on HEK293 cells (HEK293-cyno DLL3) (Cynomolgus monkey). Put plainly: flow cytometry, HEK293-cyno DLL3 cells. For orientation: Flow cytometry measures light scatter and fluorescence of single cells or particles in a stream.
Test [2] addresses human DLL3 on SHP-77 cells (human) (UniProt Q9NYJ7). Put plainly: flow cytometry, SHP-77 cells.

The record followed here is patent US20240239878A1.

Cynomolgus monkey DLL3 on HEK293 cells (HEK293-cyno DLL3) (Cynomolgus monkey), sequence (Q9NYJ7 other isoform, or with tags, fused parts or gaps): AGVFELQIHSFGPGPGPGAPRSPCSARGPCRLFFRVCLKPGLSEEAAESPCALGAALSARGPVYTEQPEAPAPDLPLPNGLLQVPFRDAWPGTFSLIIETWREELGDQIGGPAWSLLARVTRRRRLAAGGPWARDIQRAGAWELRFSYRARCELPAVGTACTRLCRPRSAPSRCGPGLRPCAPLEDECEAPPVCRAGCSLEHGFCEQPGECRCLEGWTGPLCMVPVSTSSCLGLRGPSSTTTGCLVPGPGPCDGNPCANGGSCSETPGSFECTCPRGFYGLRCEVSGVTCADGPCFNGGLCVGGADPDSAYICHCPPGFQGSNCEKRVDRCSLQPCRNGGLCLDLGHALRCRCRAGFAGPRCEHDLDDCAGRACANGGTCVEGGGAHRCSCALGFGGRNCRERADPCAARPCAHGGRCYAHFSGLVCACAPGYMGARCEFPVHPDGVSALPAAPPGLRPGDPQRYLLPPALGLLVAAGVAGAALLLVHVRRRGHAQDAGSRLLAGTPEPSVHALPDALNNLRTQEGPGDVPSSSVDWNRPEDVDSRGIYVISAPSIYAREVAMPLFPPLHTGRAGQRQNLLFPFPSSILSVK
human DLL3 on SHP-77 cells (human), sequence (Q9NYJ7 27-618): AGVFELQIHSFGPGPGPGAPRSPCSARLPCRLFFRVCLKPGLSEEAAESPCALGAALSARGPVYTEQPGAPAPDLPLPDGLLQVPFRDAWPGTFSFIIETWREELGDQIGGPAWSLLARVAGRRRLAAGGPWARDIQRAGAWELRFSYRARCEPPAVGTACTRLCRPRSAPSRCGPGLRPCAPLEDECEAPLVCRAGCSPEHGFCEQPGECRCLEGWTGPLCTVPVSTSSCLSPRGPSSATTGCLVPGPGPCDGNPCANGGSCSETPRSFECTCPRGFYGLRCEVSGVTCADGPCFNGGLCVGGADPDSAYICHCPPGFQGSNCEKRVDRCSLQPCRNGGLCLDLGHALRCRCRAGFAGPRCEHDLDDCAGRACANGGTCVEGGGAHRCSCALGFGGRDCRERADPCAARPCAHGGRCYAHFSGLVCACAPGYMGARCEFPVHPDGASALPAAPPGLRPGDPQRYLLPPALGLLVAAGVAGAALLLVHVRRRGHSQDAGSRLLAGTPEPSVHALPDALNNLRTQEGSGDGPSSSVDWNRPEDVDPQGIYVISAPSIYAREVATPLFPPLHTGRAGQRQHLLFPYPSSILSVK

Turning to Negative control antibody, the Top MFI in test [1] came to 104 MFI; in test [2], 92 MFI.
